Measured values published in PMC2757994 (The Journal of Biological Chemistry, 2009).

Target: the molecule itself
Assay: SEC-MALS

B1: fibulin 5 fragment, residues 120–333 (cbEGFs 2–6) (domain or fragment, UniProt Q9UBX5 120-333, looked up)
chain: DESNQCVDVDECATDSHQCNPTQICINTEGGYTCSCTDGYWLLEGQCLDIDECRYGYCQQLCANVPGSYSCTCNPGFTLNEDGRSCQDVNECATENPCVQTCVNTYGSFICRCDPGYELEEDGVHCSDMDECSFSEFLCQHECVNQPGTYFCSCPPGYILLDDNRSCQDINECEHRNHTCNLQQTCYNLQGGFKCIDPIRCEEPYLRISDNRCM
modifications: N-glycosylated by the EBNA 293 cells (potential N-linked sites at residues 283 and 296)
- stoichiometry N: 2
